Measurements from the Human Domainome abundance scans (Beltran et al. 2025).
± gives the uncertainty stated by the source.

Assay: abundance fitness (aPCA) (normalised: wild type 0, dead -1); higher = more abundant; growth selection in yeast, the domain comes from the species named
Conditions: Homo sapiens
Work on “E3 ubiquitin-protein ligase NEDD4-like N205F, Q96PU5” yielded an abundance fitness of -0.544 ± 0.11.
“E3 ubiquitin-protein ligase NEDD4-like N205G, Q96PU5” showed an abundance fitness of -0.321 ± 0.054.
Work on “E3 ubiquitin-protein ligase NEDD4-like N205H, Q96PU5” yielded an abundance fitness of -0.062 ± 0.11.
For “E3 ubiquitin-protein ligase NEDD4-like N205I, Q96PU5”, the abundance fitness was -0.111 ± 0.098.
For “E3 ubiquitin-protein ligase NEDD4-like N205K, Q96PU5”, the abundance fitness was 0.033 ± 0.097.
Substance “E3 ubiquitin-protein ligase NEDD4-like N205L, Q96PU5” has an abundance fitness of -0.196 ± 0.07.
“E3 ubiquitin-protein ligase NEDD4-like N205M, Q96PU5” showed an abundance fitness of -0.109 ± 0.055.
Work on “E3 ubiquitin-protein ligase NEDD4-like N205P, Q96PU5” yielded an abundance fitness of -0.012 ± 0.093.
For “E3 ubiquitin-protein ligase NEDD4-like N205Q, Q96PU5”, the abundance fitness was -0.087 ± 0.069.
In the case of “E3 ubiquitin-protein ligase NEDD4-like N205R, Q96PU5”, the abundance fitness is reported as -0.013 ± 0.054.
In the case of “E3 ubiquitin-protein ligase NEDD4-like N205T, Q96PU5”, the abundance fitness is reported as 0.029 ± 0.092.
With “E3 ubiquitin-protein ligase NEDD4-like N205V, Q96PU5” the abundance fitness was -0.232 ± 0.068.
“E3 ubiquitin-protein ligase NEDD4-like N205Y, Q96PU5” gave an abundance fitness of 0.049 ± 0.094.
“E3 ubiquitin-protein ligase NEDD4-like N213A, Q96PU5” gave an abundance fitness of -0.382 ± 0.071.
In the case of “E3 ubiquitin-protein ligase NEDD4-like N213C, Q96PU5”, the abundance fitness is reported as -0.042 ± 0.14.
With “E3 ubiquitin-protein ligase NEDD4-like N213D, Q96PU5” the abundance fitness was -0.206 ± 0.075.
Work on “E3 ubiquitin-protein ligase NEDD4-like N213E, Q96PU5” yielded an abundance fitness of -0.404 ± 0.11.
For “E3 ubiquitin-protein ligase NEDD4-like N213F, Q96PU5”, the abundance fitness was -0.507 ± 0.11.
For “E3 ubiquitin-protein ligase NEDD4-like N213G, Q96PU5”, the abundance fitness was -0.326 ± 0.084.
Work on “E3 ubiquitin-protein ligase NEDD4-like N213K, Q96PU5” yielded an abundance fitness of -0.752 ± 0.18.
Substance “E3 ubiquitin-protein ligase NEDD4-like N213L, Q96PU5” has an abundance fitness of -0.709 ± 0.1.
With “E3 ubiquitin-protein ligase NEDD4-like N213M, Q96PU5” the abundance fitness was -0.441 ± 0.11.
Substance “E3 ubiquitin-protein ligase NEDD4-like N213P, Q96PU5” has an abundance fitness of -0.383 ± 0.24.
“E3 ubiquitin-protein ligase NEDD4-like N213Q, Q96PU5” gave an abundance fitness of -0.295 ± 0.089.
Substance “E3 ubiquitin-protein ligase NEDD4-like N213R, Q96PU5” has an abundance fitness of -0.56 ± 0.069.
“E3 ubiquitin-protein ligase NEDD4-like N213S, Q96PU5” showed an abundance fitness of 0.213 ± 0.12.
“E3 ubiquitin-protein ligase NEDD4-like N213T, Q96PU5” showed an abundance fitness of -0.428 ± 0.1.
“E3 ubiquitin-protein ligase NEDD4-like N213V, Q96PU5” showed an abundance fitness of -0.88 ± 0.13.
Substance “E3 ubiquitin-protein ligase NEDD4-like N213W, Q96PU5” has an abundance fitness of -0.753 ± 0.1.
In the case of “E3 ubiquitin-protein ligase NEDD4-like N213Y, Q96PU5”, the abundance fitness is reported as -0.349 ± 0.39.
Work on “E3 ubiquitin-protein ligase NEDD4-like N215A, Q96PU5” yielded an abundance fitness of -0.029 ± 0.072.
With “E3 ubiquitin-protein ligase NEDD4-like N215C, Q96PU5” the abundance fitness was -0.178 ± 0.084.
“E3 ubiquitin-protein ligase NEDD4-like N215D, Q96PU5” gave an abundance fitness of 0.015 ± 0.086.
With “E3 ubiquitin-protein ligase NEDD4-like N215E, Q96PU5” the abundance fitness was -0.086 ± 0.077.
Work on “E3 ubiquitin-protein ligase NEDD4-like N215F, Q96PU5” yielded an abundance fitness of -0.169 ± 0.1.
Work on “E3 ubiquitin-protein ligase NEDD4-like N215G, Q96PU5” yielded an abundance fitness of -0.036 ± 0.05.
In the case of “E3 ubiquitin-protein ligase NEDD4-like N215H, Q96PU5”, the abundance fitness is reported as -0.031 ± 0.1.
For “E3 ubiquitin-protein ligase NEDD4-like N215I, Q96PU5”, the abundance fitness was -0.077 ± 0.084.
“E3 ubiquitin-protein ligase NEDD4-like N215K, Q96PU5” gave an abundance fitness of 0.165 ± 0.098.
“E3 ubiquitin-protein ligase NEDD4-like N215L, Q96PU5” showed an abundance fitness of -0.205 ± 0.07.
“E3 ubiquitin-protein ligase NEDD4-like N215M, Q96PU5” gave an abundance fitness of -0.077 ± 0.062.
With “E3 ubiquitin-protein ligase NEDD4-like N215P, Q96PU5” the abundance fitness was -0.171 ± 0.074.
In the case of “E3 ubiquitin-protein ligase NEDD4-like N215Q, Q96PU5”, the abundance fitness is reported as -0.081 ± 0.091.
In the case of “E3 ubiquitin-protein ligase NEDD4-like N215R, Q96PU5”, the abundance fitness is reported as -0.193 ± 0.063.
With “E3 ubiquitin-protein ligase NEDD4-like N215S, Q96PU5” the abundance fitness was -0.013 ± 0.07.
Work on “E3 ubiquitin-protein ligase NEDD4-like N215T, Q96PU5” yielded an abundance fitness of -0.118 ± 0.095.
“E3 ubiquitin-protein ligase NEDD4-like N215V, Q96PU5” gave an abundance fitness of -0.263 ± 0.071.
“E3 ubiquitin-protein ligase NEDD4-like N215W, Q96PU5” showed an abundance fitness of -0.293 ± 0.069.
With “E3 ubiquitin-protein ligase NEDD4-like N215Y, Q96PU5” the abundance fitness was -0.173 ± 0.1.
Work on “E3 ubiquitin-protein ligase NEDD4-like N216A, Q96PU5” yielded an abundance fitness of 0.016 ± 0.056.
Substance “E3 ubiquitin-protein ligase NEDD4-like N216C, Q96PU5” has an abundance fitness of -0.09 ± 0.098.
With “E3 ubiquitin-protein ligase NEDD4-like N216D, Q96PU5” the abundance fitness was -0.142 ± 0.085.
Work on “E3 ubiquitin-protein ligase NEDD4-like N216E, Q96PU5” yielded an abundance fitness of -0.188 ± 0.076.
“E3 ubiquitin-protein ligase NEDD4-like N216F, Q96PU5” showed an abundance fitness of 0.052 ± 0.091.
Work on “E3 ubiquitin-protein ligase NEDD4-like N216G, Q96PU5” yielded an abundance fitness of 0.127 ± 0.052.
“E3 ubiquitin-protein ligase NEDD4-like N216I, Q96PU5” showed an abundance fitness of 0.014 ± 0.079.
Work on “E3 ubiquitin-protein ligase NEDD4-like N216L, Q96PU5” yielded an abundance fitness of -0.001 ± 0.056.
With “E3 ubiquitin-protein ligase NEDD4-like N216M, Q96PU5” the abundance fitness was 0.18 ± 0.094.
Substance “E3 ubiquitin-protein ligase NEDD4-like N216P, Q96PU5” has an abundance fitness of -0.147 ± 0.089.
“E3 ubiquitin-protein ligase NEDD4-like N216Q, Q96PU5” gave an abundance fitness of -0.343 ± 0.1.
“E3 ubiquitin-protein ligase NEDD4-like N216R, Q96PU5” gave an abundance fitness of -0.239 ± 0.065.
Work on “E3 ubiquitin-protein ligase NEDD4-like N216S, Q96PU5” yielded an abundance fitness of 0.065 ± 0.058.
“E3 ubiquitin-protein ligase NEDD4-like N216T, Q96PU5” showed an abundance fitness of 0.127 ± 0.086.
With “E3 ubiquitin-protein ligase NEDD4-like N216V, Q96PU5” the abundance fitness was -0.151 ± 0.056.
For “E3 ubiquitin-protein ligase NEDD4-like N216W, Q96PU5”, the abundance fitness was 0.029 ± 0.062.
With “E3 ubiquitin-protein ligase NEDD4-like P191A, Q96PU5” the abundance fitness was -0.044 ± 0.07.
With “E3 ubiquitin-protein ligase NEDD4-like P191C, Q96PU5” the abundance fitness was -0.155 ± 0.087.
Work on “E3 ubiquitin-protein ligase NEDD4-like P191D, Q96PU5” yielded an abundance fitness of -0.086 ± 0.11.
Work on “E3 ubiquitin-protein ligase NEDD4-like P191E, Q96PU5” yielded an abundance fitness of -0.086 ± 0.07.
Work on “E3 ubiquitin-protein ligase NEDD4-like P191F, Q96PU5” yielded an abundance fitness of -0.326 ± 0.12.
Substance “E3 ubiquitin-protein ligase NEDD4-like P191G, Q96PU5” has an abundance fitness of -0.118 ± 0.054.
“E3 ubiquitin-protein ligase NEDD4-like P191H, Q96PU5” showed an abundance fitness of -0.072 ± 0.073.
Work on “E3 ubiquitin-protein ligase NEDD4-like P191I, Q96PU5” yielded an abundance fitness of 0.152 ± 0.12.
Substance “E3 ubiquitin-protein ligase NEDD4-like P191K, Q96PU5” has an abundance fitness of 0.024 ± 0.076.
“E3 ubiquitin-protein ligase NEDD4-like P191M, Q96PU5” gave an abundance fitness of -0.378 ± 0.057.
Substance “E3 ubiquitin-protein ligase NEDD4-like P191N, Q96PU5” has an abundance fitness of 0.051 ± 0.064.
Substance “E3 ubiquitin-protein ligase NEDD4-like P191Q, Q96PU5” has an abundance fitness of 0.024 ± 0.074.
“E3 ubiquitin-protein ligase NEDD4-like P191R, Q96PU5” showed an abundance fitness of -0.167 ± 0.061.
For “E3 ubiquitin-protein ligase NEDD4-like P191S, Q96PU5”, the abundance fitness was 0.037 ± 0.069.
Work on “E3 ubiquitin-protein ligase NEDD4-like P191T, Q96PU5” yielded an abundance fitness of 0.125 ± 0.077.
In the case of “E3 ubiquitin-protein ligase NEDD4-like P191V, Q96PU5”, the abundance fitness is reported as -0.028 ± 0.058.
Work on “E3 ubiquitin-protein ligase NEDD4-like P191W, Q96PU5” yielded an abundance fitness of -0.378 ± 0.058.
“E3 ubiquitin-protein ligase NEDD4-like P191Y, Q96PU5” showed an abundance fitness of -0.432 ± 0.14.
Work on “E3 ubiquitin-protein ligase NEDD4-like P192A, Q96PU5” yielded an abundance fitness of -0.021 ± 0.078.
In the case of “E3 ubiquitin-protein ligase NEDD4-like P192D, Q96PU5”, the abundance fitness is reported as -0.173 ± 0.063.
Work on “E3 ubiquitin-protein ligase NEDD4-like P192E, Q96PU5” yielded an abundance fitness of -0.369 ± 0.079.
“E3 ubiquitin-protein ligase NEDD4-like P192F, Q96PU5” showed an abundance fitness of -0.296 ± 0.075.
With “E3 ubiquitin-protein ligase NEDD4-like P192G, Q96PU5” the abundance fitness was -0.064 ± 0.06.
With “E3 ubiquitin-protein ligase NEDD4-like P192H, Q96PU5” the abundance fitness was -0.1 ± 0.071.
“E3 ubiquitin-protein ligase NEDD4-like P192I, Q96PU5” showed an abundance fitness of -0.269 ± 0.1.
With “E3 ubiquitin-protein ligase NEDD4-like P192K, Q96PU5” the abundance fitness was -0.086 ± 0.095.
With “E3 ubiquitin-protein ligase NEDD4-like P192L, Q96PU5” the abundance fitness was -0.173 ± 0.072.
For “E3 ubiquitin-protein ligase NEDD4-like P192M, Q96PU5”, the abundance fitness was 0.094 ± 0.082.
“E3 ubiquitin-protein ligase NEDD4-like P192N, Q96PU5” showed an abundance fitness of -0.014 ± 0.059.
With “E3 ubiquitin-protein ligase NEDD4-like P192Q, Q96PU5” the abundance fitness was 0.02 ± 0.076.
